First the molecules themselves.
B1: Pistol ribozyme (parent)
chain: GGGUCGUUGUUCCAUAAUCGCGUGGAUAUGGCACGCAAGUUUCUACCGGGCACCGUAAAUGUCCGACUGGAGCCGUUCGGGCGGCUAUAAACAGACCUCAGGCCCGAAGCGUGGCGGCACCUGCCGCCGGUGGUAAAAAAGAUCGGAAGAGCACACGUCU

Variants of B1 are the subject of the data set. The data set is described as follows: aptazyme ON/OFF ratio, guanine; higher = stronger switching; co-transcriptional cleavage with and without guanine.
Take U8G G9A U10A U11C C12U C13U: the “aptazyme ON/OFF ratio” value stood at 1.07. On to U8G G9A U10A U11G C12G C13G, for which the “aptazyme ON/OFF ratio” value turned out to be 1.05. In the case of U8G G9A U10A U11G C12G C13A, the “aptazyme ON/OFF ratio” value was found to be 1.34.

On to U8G G9A U10A U11G C12G C13U, for which the “aptazyme ON/OFF ratio” value is 1.28. As for U8G G9A U11C C12U C13A, the “aptazyme ON/OFF ratio” value is 1.25. Turning to U8G G9A U11C C12U C13U, the “aptazyme ON/OFF ratio” value was 1.13. Regarding U8G G9A U11C C12U C13G, the “aptazyme ON/OFF ratio” value is 1.27.

Regarding U8G G9A U10A U11C C12G, the “aptazyme ON/OFF ratio” value came out at 1.23. U8G G9A U10A U11C C12A: the “aptazyme ON/OFF ratio” value worked out at 1.2. With U8G G9A U10A U11C C12U, the “aptazyme ON/OFF ratio” value worked out at 1.04. In the case of U8G G9A U11C C12A C13A, the “aptazyme ON/OFF ratio” value came to 1.34. For U8G G9A U11C C12A C13U, the “aptazyme ON/OFF ratio” value was 1.3. With U8G G9A U11C C12A C13G, the “aptazyme ON/OFF ratio” value was 1.16. The value for U8G G9A U11A was 1.59. As for U8G G9A U11G, the “aptazyme ON/OFF ratio” value stood at 1.18. As to U8G G9A U11C, the “aptazyme ON/OFF ratio” value came out at 1.05.

For the variant U8G G9C U10A U11A C12G C13U, the “aptazyme ON/OFF ratio” value came to 1.18. The value for U8G G9C U10A U11A C12G C13A was 1.11; that for U8G G9C U10A U11A C12G C13G was 1.18; that for U8G G9A C12U C13U was 1.25. Consider U8G G9A C12U C13A, for which the “aptazyme ON/OFF ratio” value amounted to 1.25. In the case of U8G G9A C12U C13G, the “aptazyme ON/OFF ratio” value turned out to be 1.28. Take U8G G9C C13U: the “aptazyme ON/OFF ratio” value was 1.04. As for U8G G9C C13A, the “aptazyme ON/OFF ratio” value came to 1.04. The same measure for U8G G9C C13G: 1.03; for U8G G9C U10A U11A C12A C13G: 1.09; for U8G G9C U10A U11A C12A C13A: 1.12. Consider U8G G9C U10A U11A C12A C13U, for which the “aptazyme ON/OFF ratio” value came out at 1.18. Turning to U8G G9A U11C C13A, the “aptazyme ON/OFF ratio” value amounted to 1.07.

On to U8G G9A U11C C13U, for which the “aptazyme ON/OFF ratio” value stood at 1.06. In the case of U8G G9A U11C C13G, the “aptazyme ON/OFF ratio” value was 1.01.

With U8G G9A U10G C12U C13U, the “aptazyme ON/OFF ratio” value amounted to 1.18. As to U8G G9A U10G C12U C13G, the “aptazyme ON/OFF ratio” value was determined as 1.16. Regarding U8G G9A U10G C12U C13A, the “aptazyme ON/OFF ratio” value was 1.32.

Turning to U8G G9A U11A C12G C13U, the “aptazyme ON/OFF ratio” value was determined as 1.26. For U8G G9A U11A C12G C13A, the “aptazyme ON/OFF ratio” value worked out at 1.08. In the case of U8G G9A U11A C12G C13G, the “aptazyme ON/OFF ratio” value turned out to be 1.17. Consider U8G G9A C13G, for which the “aptazyme ON/OFF ratio” value was 1.07.

Turning to U8G G9A C13U, the “aptazyme ON/OFF ratio” value was found to be 1.28. For the variant U8G G9A C13A, the “aptazyme ON/OFF ratio” value stood at 1.24. On to U8G G9A U10A U11A C12G C13U, for which the “aptazyme ON/OFF ratio” value was 1.27. As for U8G G9A U10A U11A C12G C13A, the “aptazyme ON/OFF ratio” value was determined as 1.22.

Regarding U8G G9A U10A U11A C12G C13G, the “aptazyme ON/OFF ratio” value came to 1.39. Consider U8G G9A U10G U11A C13A, for which the “aptazyme ON/OFF ratio” value was determined as 1.14. For the variant U8G G9A U10G U11A C13U, the “aptazyme ON/OFF ratio” value was 1.14. For U8G G9A U10G U11A C13G, the “aptazyme ON/OFF ratio” value was 1.21. With U8G G9A U10C U11G C12U, the “aptazyme ON/OFF ratio” value amounted to 1.29. The same measure for U8G G9A U10C U11G C12G: 1.45; for U8G G9A U10C U11G C12A: 1.06. In the case of U8G G9C U10A U11G C12G, the “aptazyme ON/OFF ratio” value was determined as 1.19. With U8G G9C U10A U11G C12A, the “aptazyme ON/OFF ratio” value was determined as 1.07. The same measure for U8G G9C U10A U11G C12U: 1.2; for U8G G9C U10A C12G: 1.1.

For the variant U8G G9C U10A C12A, the “aptazyme ON/OFF ratio” value was 1.23. In the case of U8G G9C U10A C12U, the “aptazyme ON/OFF ratio” value came to 1.08. Consider U8G G9A U10C U11C C12U C13U, for which the “aptazyme ON/OFF ratio” value amounted to 1.03. Regarding U8G G9A U10C U11C C12U C13G, the “aptazyme ON/OFF ratio” value was 1.04.

With U8G G9A U10C U11C C12U C13A, the “aptazyme ON/OFF ratio” value was 1.04. Take U8G G9C C12A: the “aptazyme ON/OFF ratio” value was found to be 1.07. As to U8G G9C C12U, the “aptazyme ON/OFF ratio” value came out at 1.07. As for U8G G9C C12G, the “aptazyme ON/OFF ratio” value turned out to be 1.05. For U8G G9A U10A C12A C13A, the “aptazyme ON/OFF ratio” value amounted to 1.33. Turning to U8G G9A U10A C12A C13G, the “aptazyme ON/OFF ratio” value was 1.18. The value for U8G G9A U10A C12A C13U was 1.26.

For U8G G9A U10G, the “aptazyme ON/OFF ratio” value was found to be 2.04. For U8G G9A U10A, the “aptazyme ON/OFF ratio” value is 1.24.

Regarding U8G G9A U10C, the “aptazyme ON/OFF ratio” value turned out to be 2.29. Turning to U8G G9A U10C U11C C13G, the “aptazyme ON/OFF ratio” value came out at 1.03. As to U8G G9A U10C U11C C13A, the “aptazyme ON/OFF ratio” value is 0.984.

U8G G9A U10C U11C C13U: the “aptazyme ON/OFF ratio” value stood at 1.03. Take U8G G9A U11G C12U C13A: the “aptazyme ON/OFF ratio” value was found to be 1.2. In the case of U8G G9A U11G C12U C13G, the “aptazyme ON/OFF ratio” value amounted to 1.16.

U8G G9A U11G C12U C13U: the “aptazyme ON/OFF ratio” value amounted to 1.24. Consider U8G G9C U10A U11A, for which the “aptazyme ON/OFF ratio” value worked out at 1.18. With U8G G9C U10A U11G, the “aptazyme ON/OFF ratio” value is 1.18. For U8G G9C U10A U11C, the “aptazyme ON/OFF ratio” value turned out to be 1.03. The value for U8G G9A U10A U11G C12A C13G was 1.09. The same measure for U8G G9A U10A U11G C12A C13A: 1.17. Consider U8G G9A U10A U11G C12A C13U, for which the “aptazyme ON/OFF ratio” value worked out at 1.27. For U8G G9A U10A U11G C12U, the “aptazyme ON/OFF ratio” value was 1.3. As for U8G G9A U10A U11G C12G, the “aptazyme ON/OFF ratio” value was 1.48.

In the case of U8G G9A U10A U11G C12A, the “aptazyme ON/OFF ratio” value is 1.08.

As to U8G G9A U10G U11A C12U C13A, the “aptazyme ON/OFF ratio” value was determined as 1.34.

These data come from the RNAGym collection of RNA variant scans (doi:10.1021/acssynbio.7b00057).
